Results taken from patent publication US20240116985A1 (published 2024).
Starred links: 1 amine or outer side, 2 acyl side, 3 side chain; linkers in the order of their positions; H or OH if unused. Positions of bridges follow the written chain, without caps; N, C: chain ends. Non-standard residues stand in square brackets, D forms with d. Primed or numbered codes have the meaning given here. PyrS2″ = (S)-3-amino-1-((pent-4-en-1-yloxy)carbonyl)pyrrolidine-3-carboxylic acid (stapling residue), C=CCCCOC(=O)N1CC[C@@](N[*:1])(C(=O)[*:2])C1; B5(4) = 2,2-bis(4-pentenyl)glycine = 2-amino-2-(pent-4-en-1-yl)hept-6-enoic acid (stitching residue), C=CCCCC(CCCC=C)(N[*:1])C(=O)[*:2]; TfeGA = (S)-2-amino-3-((carboxymethyl)(2,2,2-trifluoroethyl)amino)propanoic acid, O=C([C@H](CN(CC(=O)[*:3])CC(F)(F)F)N[*:1])[*:2]; PyrS2 = (S)-3-amino-1-((pent-4-en-1-yloxy)carbonyl)pyrrolidine-3-carboxylic acid, C=CCCCOC(=O)N1CC[C@@](N[*:1])(C(=O)[*:2])C1; B5(12) = 2-amino-2-(pent-4-en-1-yl)hept-6-enoic acid (two olefin side chains), C=CCCCC(CCCC=C)(N[*:1])C(=O)[*:2]; 2COOHF = (S)-2-(2-amino-2-carboxyethyl)benzoic acid, O=C([C@H](Cc1ccccc1C(=O)[*:3])N[*:1])[*:2]; B5(3) = 2,2-bis(4-pentenyl)glycine (stitching residue), C=CCCCC(CCCC=C)(N[*:1])C(=O)[*:2]; Phe(3-COOH) = N[C@@H](Cc1cccc(C(=O)O)c1)C(=O)O; Phe(4-COOH) = N[C@@H](Cc1ccc(C(=O)O)cc1)C(=O)O; Bta = N[C@@H](Cc1csc2ccccc12)C(=O)O; αAllylPro = C=CC[C@@]1(C(=O)O)CCCN1; tBuAla = CC(C)(C)C[C@H](N)C(=O)O; 3Thi = N[C@@H](Cc1ccsc1)C(=O)O; Cit = NC(=O)NCCC[C@H](N)C(=O)O; S8 = C=CCCCCCC[C@](C)(N)C(=O)O; PyrS2(4) = not defined here; TfeGA″ = not defined here

molecular target: T1, full-length beta-Catenin (Uniprot ID P35222) (Homo sapiens (Human), UniProt P35222 2-781); experiment: fluorescence polarization competition; full-length beta-catenin, competitor 5FAM-TCF4(10-53) probe
T1 construct: Also used here for the endogenous beta-catenin of the DLD1 TCF reporter cells; also called bCat; B-Catenin
T1 sequence: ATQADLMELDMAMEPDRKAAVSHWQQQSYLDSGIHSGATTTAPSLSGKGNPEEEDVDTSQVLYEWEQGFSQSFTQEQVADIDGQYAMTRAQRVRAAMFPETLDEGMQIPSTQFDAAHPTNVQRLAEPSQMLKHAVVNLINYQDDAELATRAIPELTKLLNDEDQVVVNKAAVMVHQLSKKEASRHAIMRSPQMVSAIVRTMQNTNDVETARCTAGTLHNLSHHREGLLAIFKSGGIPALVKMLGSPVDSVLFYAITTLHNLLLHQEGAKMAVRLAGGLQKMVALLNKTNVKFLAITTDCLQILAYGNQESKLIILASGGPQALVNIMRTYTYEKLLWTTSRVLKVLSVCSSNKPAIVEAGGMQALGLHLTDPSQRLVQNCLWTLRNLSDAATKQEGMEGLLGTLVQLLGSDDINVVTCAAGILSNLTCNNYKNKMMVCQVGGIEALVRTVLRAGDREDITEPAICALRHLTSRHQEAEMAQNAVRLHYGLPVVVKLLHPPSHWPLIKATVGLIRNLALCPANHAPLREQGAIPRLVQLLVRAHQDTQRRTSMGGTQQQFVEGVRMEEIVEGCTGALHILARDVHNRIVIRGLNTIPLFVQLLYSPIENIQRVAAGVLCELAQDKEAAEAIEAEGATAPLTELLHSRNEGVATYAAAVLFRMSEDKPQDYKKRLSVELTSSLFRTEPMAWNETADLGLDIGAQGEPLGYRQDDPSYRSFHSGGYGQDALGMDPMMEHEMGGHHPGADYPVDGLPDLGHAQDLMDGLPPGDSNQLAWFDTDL
How it was run: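 Fluorescence polarization was read in duplicate after the plate sat 60 minutes at 20° C. shielded from light. Values come from fitting to a 1:1 binding model with hill slope.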

Row | EC50 | Binder
1 | 0.043 µM | Ac-[αAllylPro]DL[B5(4)]DEAAFN[S8]F[Bta]S-NH2 (staple 1-4, 4-11; also: olefin E/Z not assigned, earlier-eluting staple isomer, Stapled peptide composition) [I-750]

molecular target: T2, B-cat-Halo (UniProt P35222 1-781); experiment: cell-based or functional assay
T2 sequence (looked up): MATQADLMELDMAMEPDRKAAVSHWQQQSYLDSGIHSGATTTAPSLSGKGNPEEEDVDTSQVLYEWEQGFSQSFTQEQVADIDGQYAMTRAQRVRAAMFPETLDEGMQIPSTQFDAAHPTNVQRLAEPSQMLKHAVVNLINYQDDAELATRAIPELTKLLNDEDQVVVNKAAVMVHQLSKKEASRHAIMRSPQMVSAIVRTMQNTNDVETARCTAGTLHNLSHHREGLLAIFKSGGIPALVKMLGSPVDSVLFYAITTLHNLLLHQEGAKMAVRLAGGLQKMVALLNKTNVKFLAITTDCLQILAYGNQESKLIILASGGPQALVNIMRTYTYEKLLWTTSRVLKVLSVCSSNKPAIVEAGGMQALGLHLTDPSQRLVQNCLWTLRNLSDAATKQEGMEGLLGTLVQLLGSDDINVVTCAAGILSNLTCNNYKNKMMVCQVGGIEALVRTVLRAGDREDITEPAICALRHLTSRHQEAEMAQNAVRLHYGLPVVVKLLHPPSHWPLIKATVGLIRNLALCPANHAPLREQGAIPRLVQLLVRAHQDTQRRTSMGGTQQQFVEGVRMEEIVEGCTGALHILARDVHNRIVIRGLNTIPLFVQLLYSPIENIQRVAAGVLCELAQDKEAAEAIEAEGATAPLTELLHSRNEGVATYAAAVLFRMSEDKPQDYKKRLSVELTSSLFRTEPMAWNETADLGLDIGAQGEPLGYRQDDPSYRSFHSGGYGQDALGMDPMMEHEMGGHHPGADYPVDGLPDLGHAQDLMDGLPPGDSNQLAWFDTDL

Row | NanoBRET Abs IC50 | Binder
2 | > 20 µM | Ac-[αAllylPro]D[tBuAla][B5(3)]DLAAFN[PyrS2(4)][3Thi][Bta]H-NH2 (staple 1-4, 4-11; reading uncertain) [I-847]
3 | 23.8 µM | Ac-[αAllylPro]D[tBuAla][B5(3)]DNAAFN[PyrS2″][3Thi][Bta]H-NH2 (staple 1-4, 4-11) [I-837]
4 | 41.9 µM | Ac-[αAllylPro]D[tBuAla][B5(3)]DQAAFN[PyrS2″][3Thi][Bta]H-NH2 (staple 1-4, 4-11) [I-839]
5 | 16.4 µM | Ac-[αAllylPro]D[tBuAla][B5(3)]D[Phe(4-COOH)]AAFF[PyrS2][3Thi][Bta]Q-NH2 (staple 1-4, 4-11) [I-850]
6 | 6.8 µM | Ac-[αAllylPro]D[tBuAla][B5(12)]DNAAFL[PyrS2][3Thi][Bta]Q-NH2 (staple 1-4, 4-11) [I-856]
7 | 7 µM | Ac-[αAllylPro]D[tBuAla][B5(3)]D[TfeGA″]AAFF[PyrS2(4)][3Thi][Bta]Q-NH2 (staple 1-4, 4-11; reading uncertain) [I-848]
8 | 3.6 µM | Ac-[αAllylPro]D[tBuAla][B5(12)]D[2COOHF]AAFL[PyrS2][3Thi][Bta]Q-NH2 (staple 1-4, 4-11) [I-854]
9 | 34.4 µM | Ac-[αAllylPro]D[tBuAla][B5(3)]D[Cit]AAFN[PyrS2″][3Thi][Bta]H-NH2 (staple 1-4, 4-11) [I-841]
10 | 7.6 µM | Ac-[αAllylPro]D[tBuAla][B5(3)]D[Phe(4-COOH)]AAFL[PyrS2][3Thi][Bta]Q-NH2 (staple 1-4, 4-11) [I-851]
11 | 3.6 µM | Ac-[αAllylPro]D[tBuAla][B5(3)]D[TfeGA]AAFL[PyrS2][3Thi][Bta]Q-NH2 (staple 1-4, 4-11) [I-849]
12 | 2.8 µM | Ac-[αAllylPro]D[tBuAla][B5(3)]D[Phe(3-COOH)]AAFF[PyrS2][3Thi][Bta]Q-NH2 (staple 1-4, 4-11) [I-852]
13 | 47.9 µM | Ac-[αAllylPro]D[tBuAla][B5(3)]DYAAFN[PyrS2″][3Thi][Bta]Q-NH2 (staple 1-4, 4-11) [I-842]
14 | 17.4 µM | Ac-[αAllylPro]D[tBuAla][B5(3)]DQAAFN[PyrS2″][3Thi][Bta]Q-NH2 (staple 1-4, 4-11) [I-838]
